According to patent publication US20060084792A1 (UNITED STATES OF AMERICA AS REPRESENTED BY THE …, published 2006):

Experiments:
[1] = target: the molecule itself; test: summary of native PAGE and TEM; self-assembly of subunits
Method: (§1) The purity of the proteins was evaluated using denaturing polyacrylamide gel electrophoresis (GeneMate 8-16% Express Gels, ISC BioExpress). The ability of each of the circular permutations to form double rings was assessed by non-denaturing 4-40% gradient polyacrylamide gel (FIG. 18) as previously described (J K Trent, et al., 1991 Nature 354:490-493).
(§2) Samples were prepared for the electron microscope by drop casting on carbon-coated formvar substrates (Ladd) and stained with 1% uranyl acetate. Samples were visualized using a Leo 912AB electron microscope in bright field TEM mode at 65 kV with a tungsten filament electron source.
(§3) Samples of the five different circular permutated chaperonin polypeptides (without the joined EYFP sequence) were analyzed at 1 hour or 24 hours after addition of 1 mM ATP and 25 mM Mg²⁺ (FIG. 19A-J). All five circular permuted chaperonins analyzed formed double rings having the same structure as wild-type chaperonin double rings, with two rings of nine subunits each (FIG. 19A-E). […] The circular permutated chaperonin polypeptides 480 and 499 formed predominantly filamentous structures. For permutants at positions 480 and 499, heating the sample to 70 degrees C. for 30 minutes immediately after addition of ATP and Mg²⁺ produced longer filaments.

[2] = target: the molecule itself; test: TEM, negative stain, after adding 1 mM ATP and 25 mM Mg2+; self-assembly of subunits
Method: as §2, §3

[3] = target: the molecule itself; test: non-denaturing gradient PAGE (FIG. 18) and TEM; self-assembly of subunits
Method: as §1, §2, §3

B1: position 267 circular permutant chaperonin protein (Sulfolobus shibatae TF55 beta subunit, termini relocated after residue 267) (other)
chain: MADPTQMHKFLEEEENILKEKVDKIAATGANVVIAQKGIDEVAQHYLAKKGILAVRRAKKSDLEKLARATGGRVISNIDELTSQDLGYAALVEERKVGEDKIVFVEGAKNPKSVSILIRGGLERVVDETERALRDALGTVADVIRDGRAVAGGGAVEIEIAKRLRKYAPQVGGKEQLAIEAYANAIEGLIMILAENAGLDPIDKLMQLRSLHENETNKWYGLNLFTGNPEDMWKLGVIEPALVKMNAIKAATEAVTLVLRIDDIVGGSGGTIPVIILKEGSSRTYGKEALRANIAAVKAIEEALKSTYGPRGMDKILVDSLGDITITNDGATILDKMDLQHPTGKLLVQIAKGQDEETADGTKTAVILAGELAKKAEDLLYKEIHPTIIVSGYKKAEEIALKTIQDIAQPVSINDTDVLRKVALTSLGSKAVAGAREYLADLVVKAVAQVAELRGDKWYVDLDNVQIVKKHGGSINDTQLVYGIVVDKEVVHPGMPKRIENAKIALLDASLEVEKPELDAEIRIN
notes: Entry is the single subunit; Original termini are joined by the linker GGSGGT; Assembles into double rings with two rings of nine subunits each
**Q.** Does B1 bind [1]?
**A.** Result: binds

B2: position 153 circular permutant chaperonin protein (Sulfolobus shibatae TF55 beta subunit, termini relocated after residue 153) (other)
chain: MAINDTDVLRKVALTSLGSKAVAGAREYLADLVVKAVAQVAELRGDKWYVDLDNVQIVKKHGGSINDTQLVYGIVVDKEVVHPGMPKRIENAKIALLDASLEVEKPELDAEIRINDPTQMHKFLEEEENILKEKVDKIAATGANVVIAQKGIDEVAQHYLAKKGILAVRRAKKSDLEKLARATGGRVISNIDELTSQDLGYAALVEERKVGEDKIVFVEGAKNPKSVSILIRGGLERVVDETERALRDALGTVADVIRDGRAVAGGGAVEIEIAKRLRKYAPQVGGKEQLAIEAYANAIEGLIMILAENAGLDPIDKLMQLRSLHENETNKWYGLNLFTGNPEDMWKLGVIEPALVKMNAIKAATEAVTLVLRIDDIVGGSGGTIPVIILKEGSSRTYGKEALRANIAAVKAIEEALKSTYGPRGMDKILVDSLGDITITNDGATILDKMDLQHPTGKLLVQIAKGQDEETADGTKTAVILAGELAKKAEDLLYKEIHPTIIVSGYKKAEEIALKTIQDIAQPVS
notes: Entry is the single subunit; Original termini are joined by the linker GGSGGT; also called circular permutant at position 153; permutant 153
**Q.** Does B2 bind [2]?
**A.** Result: binds

B3: position 480 circular permutant chaperonin protein (Sulfolobus shibatae TF55 beta subunit, termini relocated after residue 480) (other)
chain: MANKWYGLNLFTGNPEDMWKLGVIEPALVKMNAIKAATEAVTLVLRIDDIVGGSGGTIPVIILKEGSSRTYGKEALRANIAAVKAIEEALKSTYGPRGMDKILVDSLGDITITNDGATILDKMDLQHPTGKLLVQIAKGQDEETADGTKTAVILAGELAKKAEDLLYKEIHPTIIVSGYKKAEEIALKTIQDIAQPVSINDTDVLRKVALTSLGSKAVAGAREYLADLVVKAVAQVAELRGDKWYVDLDNVQIVKKHGGSINDTQLVYGIVVDKEVVHPGMPKRIENAKIALLDASLEVEKPELDAEIRINDPTQMHKFLEEEENILKEKVDKIAATGANVVIAQKGIDEVAQHYLAKKGILAVRRAKKSDLEKLARATGGRVISNIDELTSQDLGYAALVEERKVGEDKIVFVEGAKNPKSVSILIRGGLERVVDETERALRDALGTVADVIRDGRAVAGGGAVEIEIAKRLRKYAPQVGGKEQLAIEAYANAIEGLIMILAENAGLDPIDKLMQLRSLHENET
notes: Entry is the single subunit; Original termini are joined by the linker GGSGGT; Assembles into double rings with two rings of nine subunits each; also called circular permutant at position 480; permutant 480
**Q.** Does B3 bind [3]?
**A.** Result: binds

B4: position 316 circular permutant chaperonin protein (Sulfolobus shibatae TF55 beta subunit, termini relocated after residue 316) (other)
chain: MAILAVRRAKKSDLEKLARATGGRVISNIDELTSQDLGYAALVEERKVGEDKIVFVEGAKNPKSVSILIRGGLERVVDETERALRDALGTVADVIRDGRAVAGGGAVEIEIAKRLRKYAPQVGGKEQLAIEAYANAIEGLIMILAENAGLDPIDKLMQLRSLHENETNKWYGLNLFTGNPEDMWKLGVIEPALVKMNAIKAATEAVTLVLRIDDIVGGSGGTIPVIILKEGSSRTYGKEALRANIAAVKAIEEALKSTYGPRGMDKILVDSLGDITITNDGATILDKMDLQHPTGKLLVQIAKGQDEETADGTKTAVILAGELAKKAEDLLYKEIHPTIIVSGYKKAEEIALKTIQDIAQPVSINDTDVLRKVALTSLGSKAVAGAREYLADLVVKAVAQVAELRGDKWYVDLDNVQIVKKHGGSINDTQLVYGIVVDKEVVHPGMPKRIENAKIALLDASLEVEKPELDAEIRINDPTQMHKFLEEEENILKEKVDKIAATGANVVIAQKGIDEVAQHYLAKKG
notes: Entry is the single subunit; Original termini are joined by the linker GGSGGT; Assembles into double rings with two rings of nine subunits each; also called circular permutant at position 316; permutant 316
**Q.** Does B4 bind [3]?
**A.** Result: binds

B5: position 499 circular permutant chaperonin protein (Sulfolobus shibatae TF55 beta subunit, termini relocated after residue 499) (other)
chain: MALGVIEPALVKMNAIKAATEAVTLVLRIDDIVGGSGGTIPVIILKEGSSRTYGKEALRANIAAVKAIEEALKSTYGPRGMDKILVDSLGDITITNDGATILDKMDLQHPTGKLLVQIAKGQDEETADGTKTAVILAGELAKKAEDLLYKEIHPTIIVSGYKKAEEIALKTIQDIAQPVSINDTDVLRKVALTSLGSKAVAGAREYLADLVVKAVAQVAELRGDKWYVDLDNVQIVKKHGGSINDTQLVYGIVVDKEVVHPGMPKRIENAKIALLDASLEVEKPELDAEIRINDPTQMHKFLEEEENILKEKVDKIAATGANVVIAQKGIDEVAQHYLAKKGILAVRRAKKSDLEKLARATGGRVISNIDELTSQDLGYAALVEERKVGEDKIVFVEGAKNPKSVSILIRGGLERVVDETERALRDALGTVADVIRDGRAVAGGGAVEIEIAKRLRKYAPQVGGKEQLAIEAYANAIEGLIMILAENAGLDPIDKLMQLRSLHENETNKWYGLNLFTGNPEDMWK
notes: Entry is the single subunit; Original termini are joined by the linker GGSGGT; Assembles into double rings with two rings of nine subunits each; also called circular permutant at position 499; permutant 499
**Q.** Does B5 bind [3]?
**A.** Result: binds
